The record followed here is patent US20140328850A1 (Amgen, published 2014).

One test concerns the target T1, apelin 12 (UniProt Q9ULZ1 66-77).
T1 construct: domain: apelin 12
T1 peptide (looked up): RPRLSHKGPMPF
The test can be described thus: BIAcore solution equilibrium binding: Ab A pre-incubated with apelin 12, injected over immobilised biotin-labeled apelin; one-site homogeneous model. As for the experimental part:
Binding affinity of Ab A was determined using BIAcore solution equilibrium binding analysis. Briefly, biotin-labeled apelin was immobilized at high density on a neutravidin surface. Ab A was incubated with apelin 12 at RT for over 4 hours before injected over the immobilized surfaces. The dissociation equilibrium constant (Kd) was obtained from a nonlinear regression analysis of the competition curve using a one-site homogeneous binding model (KinExATM Pro software).
Background: SPR reads the build-up and loss of mass on a sensor chip optically.

The next test concerns the target apelin (UniProt Q9ULZ1 65-77, limits assumed). The test can be described thus: cell-based or functional assay.
Another test has as its target T2, F13A (also: biotinylated, position not given here).
T2 construct: apelin 13 with A in place of the C-terminal F; also called peptide 4
T2 peptide: QRPRLSHKGPMPA
The test can be described thus: ELISA: biotinylated peptide captured on neutravidin plate, antibody detected with HRP goat anti-mouse Fc, OD650; one point per peptide, antibody concentration not given. As for the experimental part: (§1) The antibody binding site was mapped using an ELISA-based assay. Briefly, various biotinylated apelin peptides (SEQ ID NOs: 7-22) were captured onto neutravidin coated plates and incubated with apelin antibody. Bound antibody was detected with horseradish peroxidase-conjugated goat anti-mouse Fc in the presence of the chromogenic substrate. The absorbance was read at 650 nm. Ab A is believed to neutralize all active forms of apelin.
Background: ELISA stands for enzyme-linked immunosorbent assay.

The target of a further test is T3, apelin 11 (also: biotinylated, position not given here).
T3 construct: also called peptide 6
T3 peptide: PRLSHKGPMPF
Described as above. As for the experimental part: as §1

Another test has as its target T4, apelin 12-3 (also: biotinylated, position not given here).
T4 construct: also called peptide 12
T4 peptide: RPRLSHKGPM
The description is as above. As for the experimental part: as §1

For the next test, the target named is T5, pyro13 C-blot (N-terminal pGlu as printed; biotinylated; the sheet prints 'C-blot', meaning not explained).
T5 construct: also called peptide 3
T5 peptide: ERPRLSHKGPMPF
The test is described as above. As for the experimental part: as §1

In another test the target is T6, apelin 12-4 (also: biotinylated, position not given here).
T6 construct: also called peptide 13
T6 peptide: RPRLSHKGP
The description is as above. As for the experimental part:
as §1

The next test has as its target T7, apelin 12-5 (also: biotinylated, position not given here).
T7 construct: also called peptide 14
T7 peptide: RPRLSHKG
The description is as above. As for the experimental part:
as §1

The next test has as its target T8, apelin 12-2 (also: biotinylated, position not given here).
T8 construct: also called peptide 11
T8 peptide: RPRLSHKGPMP
Described as above. As for the experimental part:
as §1

No end group written: not given here.

B1: antibody A (Ab A) (antibody, V domains shown)
VH: NVQLVESGGGLVKPGGSLKLSCVASGFIFSDYVMSWVRQTPEKRLEWVATISDGGIYTSYPDNIKGRFTISRDNANNKLYLQMSHLRSEDTAMYFCSRAAITSDDFDFWGQGTALTVSS
VL: DIVMSQSPSSLAVSAGEKVTMSCKSSQSLLDSRTRKNYLAWYQQKPGQSPKLLISWASIRESGVPDRFTGSGSGTDFTLSISSVQAEDLAVYYCKQSYYLLTFGAGTKLELKR
notes: also called apelin antibody; apelin Ab
As usually defined, the Kd is the free concentration of one partner at which half of the binding sites on the other are occupied at equilibrium, for simple one-to-one binding. Low values mean higher affinity, high ones lower affinity. In the case of B1, the affinity with apelin 12, expressed as Kd, was 6 nM. Besides, the “IC50: inhibition of the apelin-induced change of cAMP (HTRF ratio 665/620) in CHOK1-human APJ cells, 6 nM apelin, 500 nM forskolin” value in the test with apelin was 18.2 nM. Moreover, the binding result with F13A, with apelin 11, with apelin 12-3, in the test with pyro13 C-blot, with apelin 12-4 and with apelin 12-5 was “binds” throughout. Also, in the test with apelin 12-2, the binding result is “binds”.
